Earlier results as cited in publication PMC12635586.
pKd: −log10 of the molar value.

How the values were obtained:
GFRAL (Homo sapiens) = GFRAL (Homo sapiens) (UniProt Q6UXV0)
Sequence of GFRAL (Homo sapiens) (Q6UXV0 19-351): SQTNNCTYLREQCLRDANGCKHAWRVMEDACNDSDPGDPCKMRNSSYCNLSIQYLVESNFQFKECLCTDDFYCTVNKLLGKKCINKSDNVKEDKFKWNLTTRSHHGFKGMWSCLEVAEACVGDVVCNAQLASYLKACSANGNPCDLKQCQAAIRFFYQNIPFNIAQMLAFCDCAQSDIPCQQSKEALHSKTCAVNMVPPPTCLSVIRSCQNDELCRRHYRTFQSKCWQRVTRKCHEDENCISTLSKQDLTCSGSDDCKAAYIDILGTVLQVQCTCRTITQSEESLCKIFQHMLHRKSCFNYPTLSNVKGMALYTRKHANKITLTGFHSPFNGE

Sequence of Growth differentiation factor-15 (Q99988 195-308): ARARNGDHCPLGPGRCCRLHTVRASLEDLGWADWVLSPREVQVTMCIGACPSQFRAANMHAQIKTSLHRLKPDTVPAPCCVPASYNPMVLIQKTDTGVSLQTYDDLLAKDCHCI
Sequence of Interleukin-6 (P05231 30-212): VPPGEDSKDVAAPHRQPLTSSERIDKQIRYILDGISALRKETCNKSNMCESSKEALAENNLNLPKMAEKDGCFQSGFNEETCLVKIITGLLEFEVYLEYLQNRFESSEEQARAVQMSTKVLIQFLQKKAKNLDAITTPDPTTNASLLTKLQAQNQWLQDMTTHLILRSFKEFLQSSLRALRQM
Sequence of Clazakizumab (main, as listed by the source, chain 1 of 2): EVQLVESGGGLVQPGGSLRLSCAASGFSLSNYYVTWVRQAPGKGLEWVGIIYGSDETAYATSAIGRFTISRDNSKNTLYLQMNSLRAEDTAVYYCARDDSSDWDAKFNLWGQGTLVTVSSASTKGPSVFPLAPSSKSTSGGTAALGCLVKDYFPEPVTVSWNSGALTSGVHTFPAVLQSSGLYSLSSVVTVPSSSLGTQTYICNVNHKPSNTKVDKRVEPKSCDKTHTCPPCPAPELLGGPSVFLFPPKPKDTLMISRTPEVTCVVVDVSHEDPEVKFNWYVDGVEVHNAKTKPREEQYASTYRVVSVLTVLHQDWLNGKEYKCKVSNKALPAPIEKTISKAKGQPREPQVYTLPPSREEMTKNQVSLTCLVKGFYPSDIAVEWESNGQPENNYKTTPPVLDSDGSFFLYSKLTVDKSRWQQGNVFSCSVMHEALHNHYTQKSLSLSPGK
Sequence of Clazakizumab (partner, as listed by the source, chain 2 of 2): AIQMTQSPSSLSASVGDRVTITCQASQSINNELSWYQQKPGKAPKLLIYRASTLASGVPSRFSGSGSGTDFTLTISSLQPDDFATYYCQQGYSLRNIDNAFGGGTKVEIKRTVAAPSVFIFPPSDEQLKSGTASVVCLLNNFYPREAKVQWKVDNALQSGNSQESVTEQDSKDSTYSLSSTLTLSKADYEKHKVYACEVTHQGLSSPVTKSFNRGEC

| pKd (GFRAL (Homo sapiens)) | pKd (Clazakizumab) | Substance |
| --- | --- | --- |
| 8.10 |  | Growth differentiation factor-15 (from UniProt Q99988) |
|  | 11.40 | Interleukin-6 (from UniProt P05231) |
